Assay results reported in patent publication US20100136580A1 (Genentech, published 2010).

T1: GST-Dvl2PDZ fusion protein (human, UniProt O14641 248-364)
T1 construct: range 248-364; Made with the pGEX E. coli expression system; also called GST-PDZ fusion protein; not shown: glutathione S-transferase (GST) encoded by plasmid pGEX
T1 sequence (looked up): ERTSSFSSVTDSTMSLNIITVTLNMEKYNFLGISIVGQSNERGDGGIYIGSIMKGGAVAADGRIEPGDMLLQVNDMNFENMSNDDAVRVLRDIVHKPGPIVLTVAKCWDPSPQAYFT

B1: SEQ ID NO 99 (peptide)
peptide: SIIYYGWLDGGG
B2: SEQ ID NO 141 (peptide)
peptide: EVLWSDFPPM
B3: SEQ ID NO 88 (peptide)
peptide: GGRMALGWLDGGG
B4: SEQ ID NO 95 (peptide)
peptide: WISGWIDYPP
B5: SEQ ID NO 144 (peptide)
peptide: EMDLLWTDIP
B6: SEQ ID NO 134 (peptide)
peptide: ELWIDGPHVM
B7: SEQ ID NO 128 (peptide)
peptide: EVLWSDFPPM
B8: SEQ ID NO 81 (peptide)
peptide: QSHTCYGWIDGGG
B9: SEQ ID NO 137 (peptide)
peptide: WVMLWSDLPA
B10: SEQ ID NO 93 (peptide)
peptide: SLQWYGWIDSGG
B11: SEQ ID NO 90 (peptide)
peptide: TDYGWIDYPP
B12: SEQ ID NO 107 (peptide)
peptide: VSLINYGWIDGGG
B13: SEQ ID NO 119 (peptide)
peptide: EVLWSDFPPM
B14: SEQ ID NO 122 (peptide)
peptide: EVLWADFPPM
B15: SEQ ID NO 131 (peptide)
peptide: LQLLWSDIPG
B16: SEQ ID NO 133 (peptide)
peptide: WTNVLWTDIP
B17: SEQ ID NO 136 (peptide)
peptide: QLVELWSDIP
B18: SEQ ID NO 117 (peptide)
peptide: SWETLWSDFP
B19: SEQ ID NO 135 (peptide)
peptide: SIVLWSDIPS
B20: SEQ ID NO 104 (peptide)
peptide: YTKYYGWIDTGG
B21: SEQ ID NO 87 (peptide)
peptide: TWMDYGWLDQGG
B22: SEQ ID NO 125 (peptide)
peptide: TNLLWSDIPP
B23: SEQ ID NO 96 (peptide)
peptide: SHWKYYGWIDGGG
B24: SEQ ID NO 103 (peptide)
peptide: YTDYGWIDQSG
B25: SEQ ID NO 85 (peptide)
peptide: TLLHFYGYIDGGG
B26: SEQ ID NO 130 (peptide)
peptide: GLVLLWDDFP
B27: SEQ ID NO 127 (peptide)
peptide: SIVLWSDIPS
B28: SEQ ID NO 84 (peptide)
peptide: FTWRDYGWLDGGG
B29: SEQ ID NO 147 (peptide)
peptide: TWIDGPYLLQ
B30: SEQ ID NO 106 (peptide)
peptide: LKFYGWIDGGG
B31: SEQ ID NO 118 (peptide)
peptide: NEQLLWTDIP
B32: SEQ ID NO 86 (peptide)
peptide: YTKYYGWIDTGG
B33: SEQ ID NO 129 (peptide)
peptide: EMITLWSDLP
B34: SEQ ID NO 110 (peptide)
peptide: AMFHEYGWIDGGG
B35: SEQ ID NO 146 (peptide)
peptide: SLLTIWSDIP
B36: SEQ ID NO 132 (peptide)
peptide: EMDLLWTDIP
B37: SEQ ID NO 108 (peptide)
peptide: IKLVQYGWIDGGG
B38: SEQ ID NO 97 (peptide)
peptide: ITDYGWVDGPG
B39: SEQ ID NO 82 (peptide)
peptide: VKYYGYIDGGG
B40: SEQ ID NO 120 (peptide)
peptide: QQLLWSDIP
B41: SEQ ID NO 138 (peptide)
peptide: EMITLWSDLP
B42: SEQ ID NO 98 (peptide)
peptide: MWYVDYGWVDGGG
B43: SEQ ID NO 83 (peptide)
peptide: WVEYGWIDSGG
B44: SEQ ID NO 100 (peptide)
peptide: AHTTFYGWIDGGG
B45: SEQ ID NO 143 (peptide)
peptide: GLVLLWTDIP
B46: SEQ ID NO 109 (peptide)
peptide: GFLTHYGWLDGGG
B47: SEQ ID NO 102 (peptide)
peptide: AWIVDYGWIDGGG
B48: SEQ ID NO 113 (peptide)
peptide: VKYYGYIDGGG
B49: SEQ ID NO 124 (peptide)
peptide: SMVLWWDVPS
B50: SEQ ID NO 114 (peptide)
peptide: HITVDYGWIDGGG
B51: SEQ ID NO 101 (peptide)
peptide: SHWKYYGWIDGGG
B52: SEQ ID NO 92 (peptide)
peptide: LKFYGWIDGGG
B53: SEQ ID NO 105 (peptide)
peptide: WWVDYGFVDGGG
B54: SEQ ID NO 148 (peptide)
peptide: VWGDSFEGRP
B55: SEQ ID NO 89 (peptide)
peptide: AWIVDYGWIDGGG
B56: SEQ ID NO 121 (peptide)
peptide: SIVLWSDIPS
B57: SEQ ID NO 123 (peptide)
peptide: SIVLWTDIPS
B58: SEQ ID NO 116 (peptide)
peptide: VNLVEYGWVDGGG
B59: SEQ ID NO 112 (peptide)
peptide: MVDYGWIDYWG
B60: SEQ ID NO 142 (peptide)
peptide: RRMLWSDIPG
B61: SEQ ID NO 94 (peptide)
peptide: VSLINYGWIDGGG
B62: SEQ ID NO 111 (peptide)
peptide: IKLVQYGWIDGGG
B63: SEQ ID NO 139 (peptide)
peptide: WVMLWSDLPA
B64: SEQ ID NO 91 (peptide)
peptide: TRFTNYGWLDGGG
B65: SEQ ID NO 145 (peptide)
peptide: NLERWSDIPM
B66: SEQ ID NO 149 (peptide)
peptide: PEVWIDGPEI
B67: SEQ ID NO 115 (peptide)
peptide: LTMYGWIDGKG
B68: SEQ ID NO 140 (peptide)
peptide: SIVLWSDIPS

Target: T1, GST-Dvl2PDZ fusion protein
Assay: phage display selection on GST-Dvl2PDZ
Description: The libraries were cycled through rounds of binding selection with a GST-Dvl2PDZ fusion protein coated on 96-well Maxisorp immunoplates as the capture target. Phage were propagated in E. coli XL1-blue with M13-KO7 helper phage and 10 μM IPTG. After four rounds of binding selection, individual phage clones were analyzed in a high-throughput phage ELISA, and positive clones were subjected to DNA sequence analysis.
We used decapeptide libraries fused to the C-terminus or N-terminus of the phage coat protein. The library contained NNK degenerate codons that encoded all 20 natural amino acids. The possible occurrence of amber stop codons in the degenerate codon also provided for the display of shorter peptides for the C-terminal library. Each library was cycled through four rounds of binding selection with immobilized GST-Dvl2PDZ fusion protein as the capture target.

Row | binding result | Binder
1 | binds | B1
2 | binds | B2
3 | binds | B3
4 | binds | B4
5 | binds | B5
6 | binds | B6
7 | binds | B7
8 | binds | B8
9 | binds | B9
10 | binds | B10
11 | binds | B11
12 | binds | B12
13 | binds | B13
14 | binds | B14
15 | binds | B15
16 | binds | B16
17 | binds | B17
18 | binds | B18
19 | binds | B19
20 | binds | B20
21 | binds | B21
22 | binds | B22
23 | binds | B23

Row | binding result | Binder
24 | binds | B24
25 | binds | B25
26 | binds | B26
27 | binds | B27
28 | binds | B28
29 | binds | B29
30 | binds | B30
31 | binds | B31
32 | binds | B32
33 | binds | B33
34 | binds | B34
35 | binds | B35
36 | binds | B36
37 | binds | B37
38 | binds | B38
39 | binds | B39
40 | binds | B40
41 | binds | B41
42 | binds | B42
43 | binds | B43
44 | binds | B44
45 | binds | B45
46 | binds | B46

Row | binding result | Binder
47 | binds | B47
48 | binds | B48
49 | binds | B49
50 | binds | B50
51 | binds | B51
52 | binds | B52
53 | binds | B53
54 | binds | B54
55 | binds | B55
56 | binds | B56
57 | binds | B57
58 | binds | B58
59 | binds | B59
60 | binds | B60
61 | binds | B61
62 | binds | B62
63 | binds | B63
64 | binds | B64
65 | binds | B65
66 | binds | B66
67 | binds | B67
68 | binds | B68
